116 sequences from the supplement of paper PMC10724198 can be followed below.

± gives the standard deviation of the averaged measurements.
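Note: PSI is a weighted mean of sequencing reads over stability bins, variants kept only with over 10 reads, mCherry proximal and sfGFP distal, peptide attached via GGGS linker.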

For this data set, the system named is Saccharomyces cerevisiae. Nature of the data set: protein stability index of tFT-peptide fusion (C-terminal peptide) (PSI (0-1 scale)); higher = more stable (slower turnover). The conditions noted are these: genetic background: wild type; temperature: 30 C.
SPTPHTLRLLPT: the protein stability index is 0.662 ± 0.011.
As for SPTPTSLTPPDF, the protein stability index was 0.733 ± 0.049.
In the case of SPVGCYAIIARM it was 0.628 ± 0.042.
As to SPVHPSQHLWPP, the protein stability index worked out at 0.615 ± 0.021.
In the case of SPVRSQPALLVV it was 0.565 ± 0.0096.
As for SPWFRSAASTPT, the protein stability index turned out to be 0.786 ± 0.082.
In the case of SQLAGPPLPPPT it was 0.751 ± 0.021; in that of SRAPHPPPPTLP, 0.711 ± 0.021; in that of SRARADTSRRRA, 0.7061 ± 0.0059.
Next, SRCFGGRCQVIE: 0.67 ± 0.02.
Next, SRFPPYALAHRP: 0.716 ± 0.2; SRGGKMRPGGGG: 0.711 ± 0.012; SRGVSIQQSIKI: 0.726 ± 0.037.
SRHGFLVNMCTL registered a protein stability index of 0.683 ± 0.028.
In the case of SRHGRTTKDFLQ it was 0.682 ± 0.014; in that of SRISSGKFTGAV, 0.601 ± 0.041.
Next, SRKKSKQYRQEK: 0.716 ± 0.039; SRLGFPFTGGGR: 0.6597 ± 0.0062; SRLPPHSPVHAS: 0.787 ± 0.042.
In the case of SRLRFSIAPSIF it was 0.685 ± 0.022; in that of SRLRVVRCVSWV, 0.549 ± 0.1; in that of SRMRADRYWRNY, 0.622 ± 0.019.
For the sequence SRNFSIQILRER, the protein stability index was found to be 0.659 ± 0.019.
Take SRPPLLPTPPPS: the protein stability index was 0.701 ± 0.047.
In turn, SRPPTFPPFFPS showed a protein stability index of 0.702 ± 0.015.
SRPRPPPTPALP showed a protein stability index of 0.679 ± 0.0056.
Next, SRPRPSPSPFIA: 0.708 ± 0.045; SRPSSFRLRFLH: 0.393 ± 0.18.
Next, SRRGVVGLRVGI: 0.674 ± 0.033; SRRSTIRCSTSC: 0.717 ± 0.036; SRSAPPPSPGMT: 0.746 ± 0.052.
In the case of SRSGVKKDIRKL it was 0.657 ± 0.059; in that of SRSRPLCGVSGV, 0.687 ± 0.052.
Consider SRTLPHRTAPHC, for which the protein stability index stood at 0.758 ± 0.054.
In the case of SRVERRRTSREG it was 0.672 ± 0.083; in that of SRVVHSHRSFRP, 0.6843 ± 0.0047; in that of SRWDSDRGGERR, 0.805 ± 0.027.
In the case of SRWTLRTSMDLG it was 0.616 ± 0.013; in that of SSASDVYQVINS, 0.676 ± 0.009; in that of SSASSLTIYTRG, 0.728 ± 0.024.
In the case of SSCWRAWAVNGL it was 0.677 ± 0.063.
Turning to SSESPPLLPRPL, the protein stability index is 0.754 ± 0.032.
In the case of SSFGPSFLTLFF it was 0.70403 ± 0.00044.
As for SSFGSALRPRGV, the protein stability index was found to be 0.677 ± 0.029.
Next, SSFPPPPAAPPP: 0.667 ± 0.041; SSGASTSIVSTL: 0.678 ± 0.015.
For the sequence SSKVFCRVAKRE, the protein stability index worked out at 0.724 ± 0.026.
Next, SSLLLLFYPPLP: 0.712 ± 0.016; SSLPALRSPCHP: 0.738 ± 0.06.
SSLPPLRPFSPS showed a protein stability index of 0.726 ± 0.075.
For the sequence SSLPPPPRSPPH, the protein stability index stood at 0.715 ± 0.029.
Next, SSLPRPSHSLSL: 0.617 ± 0.068; SSLRPPPPLPPP: 0.682 ± 0.012.
On to SSLSPPPPLPPW, for which the protein stability index was determined as 0.706 ± 0.075.
In the case of SSNSRPTGSGGS it was 0.694 ± 0.1; in that of SSPLPPPHASHP, 0.7104 ± 0.0043; in that of SSPLPPSLPSSR, 0.671 ± 0.025.
Next, SSPLWDGLPRLT: 0.736 ± 0.028; SSPPPAFPRASP: 0.633 ± 0.015.
In the case of SSPPPPVPPPPS it was 0.725 ± 0.082.
SSPPSPPPPTPS displayed a protein stability index of 0.702 ± 0.031.
Next, SSPSFVVFPFVS: 0.685 ± 0.017; SSPSPALLFPAR: 0.715 ± 0.036.
The sequence SSPSSLPAPPSA yielded a protein stability index of 0.666 ± 0.039.
In the case of SSRLLRGGTGFL it was 0.722 ± 0.029; in that of SSRPPLPPPRIH, 0.618 ± 0.017.
In the case of SSRRVGRWGGLG it was 0.618 ± 0.11; in that of SSRYVATANICR, 0.69 ± 0.013.
Next, SSSCRGGVSVLV: 0.679 ± 0.044; SSSRHHTSLFSP: 0.679 ± 0.014.
On to SSSYPFPAPALR, for which the protein stability index was 0.683 ± 0.043.
In the case of SSTVGKEGTSRI it was 0.69 ± 0.048; in that of SSVNRTADGTKP, 0.69 ± 0.02; in that of SSWWPVRRTRLG, 0.587 ± 0.022.
In the case of SSYYTGVVTACL it was 0.659 ± 0.052.
Next, STAELSNSLIGR: 0.703 ± 0.033; STGSAISSLSDR: 0.68 ± 0.11.
STHLPPLPATLP displayed a protein stability index of 0.784 ± 0.1.
Next, STILSAEKTKLG: 0.707 ± 0.02; STNIDQKKKEEK: 0.7 ± 0.03.
Turning to STPPPPHSASRS, the protein stability index was 0.728 ± 0.059.
STPRLERDGTTI returned a protein stability index of 0.635 ± 0.014.
In turn, STRLFTHPRFLP yielded a protein stability index of 0.68 ± 0.013.
Next, STSRSFFFCSFL: 0.644 ± 0.072; STSSPSSSTLLP: 0.719 ± 0.031.
In the case of STSWDDLLYHSG, the protein stability index turned out to be 0.716 ± 0.059.
In the case of STTLKIHRKNRK it was 0.725 ± 0.063; in that of STTQFTLSATRI, 0.717 ± 0.093; in that of STVKARVLIITS, 0.5231 ± 0.0032.
In the case of STVTSGCLKRIS it was 0.723 ± 0.03; in that of STYIMTFTSWEP, 0.68 ± 0.0078; in that of SVCLLKSWHERQ, 0.725 ± 0.033.
Next, SVDEARSVRCVI: 0.661 ± 0.025.
The sequence SVFFFLPIYFPF gave a protein stability index of 0.633 ± 0.033.
As for SVFVDNLAFSLD, the protein stability index turned out to be 0.708 ± 0.071.
Regarding SVGFYMLECVDD, the protein stability index was 0.688 ± 0.0099.
Next, SVGGVGVEIQSV: 0.629 ± 0.15.
In turn, SVGVGSFVVLGV gave a protein stability index of 0.6543 ± 0.0024.
As to SVHRRRSLLTPL, the protein stability index was determined as 0.706 ± 0.05.
Next, SVKHTFAHSVNS: 0.6442 ± 0.0018; SVKTGAAKDRLE: 0.6929 ± 0.003; SVLDAVGGSVTA: 0.668 ± 0.092.
Next, SVLRPPAAPPFL: 0.674 ± 0.046; SVLVLGRSRPSF: 0.688 ± 0.047; SVLWLSSLRVPL: 0.7074 ± 0.0032.
Next, SVPTSLCYSFSP: 0.5957 ± 0.0034; SVRAHGDIQIPR: 0.732 ± 0.073; SVRHPPWDHRPP: 0.571 ± 0.083.
For SVSCVSRTVAPS, the protein stability index was 0.684 ± 0.027.
Next, SVSTDTLQVYAI: 0.658 ± 0.013.
In the case of SVSVFLMGLRGT it was 0.694 ± 0.015.
Next, SVTDCTADHASV: 0.653 ± 0.056; SVTLYLTPPSLT: 0.67 ± 0.062.
On to SVTPSPPPSRPF, for which the protein stability index turned out to be 0.678 ± 0.057.
Next, SVVSLLCQFLLG: 0.673 ± 0.13; SVWVCLASWCCG: 0.5487 ± 0.0038.
